The data set addresses T1, RihR (XRE-family regulator) (Azorhizobium caulinodans ORS571) (UniProt A8IKA5).
T1 sequence: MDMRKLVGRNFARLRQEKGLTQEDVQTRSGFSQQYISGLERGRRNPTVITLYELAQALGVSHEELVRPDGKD
The data set is described as follows: EMSA. Conditions: 50 mM Tris-HCl pH 8.3, 0.25 M KCl, 2.5 mM DTT, 5 mM MgCl2, 0.25 mg/mL BSA, 0.05 mg/mL poly(dI-dC), 2.5 mM EDTA, 1% glycerol; 20 uL, 20 min, room temperature; 6%.

For one sequence, binding results are on record in publication PMC9601964.

For the sequence “CGGAATTCATCGCGGTGGTATTTTTGCGAGGAAGGCCGCGTTGGAAAACGATAGTCGGTGCTCGTTCATGCCGGCAAATGAGAAGATCGCCCATAGGTATGCAAAAATGATATGATAACAGCTGACCAGCTTTAGCCCGTGCGGACGAGGGGGAGAGGATGCGTTTCAGTCATCTAGAGC (double strand) [non-specific control promoter (Pcontrol)]”, the binding entry is recorded as “no binding”.
